{"source": "patent US20230183713A1", "about": "“SITE-SPECIFIC RECOMBINASES FOR EFFICIENT AND SPECIFIC GENOME EDITING” (TECHNISCHE UNIVERSITÄt DRESDEN, published 2023)", "key": {"[1]": {"target": "T1, Cre recombinase monomer with E176I mutation", "T1 chain": "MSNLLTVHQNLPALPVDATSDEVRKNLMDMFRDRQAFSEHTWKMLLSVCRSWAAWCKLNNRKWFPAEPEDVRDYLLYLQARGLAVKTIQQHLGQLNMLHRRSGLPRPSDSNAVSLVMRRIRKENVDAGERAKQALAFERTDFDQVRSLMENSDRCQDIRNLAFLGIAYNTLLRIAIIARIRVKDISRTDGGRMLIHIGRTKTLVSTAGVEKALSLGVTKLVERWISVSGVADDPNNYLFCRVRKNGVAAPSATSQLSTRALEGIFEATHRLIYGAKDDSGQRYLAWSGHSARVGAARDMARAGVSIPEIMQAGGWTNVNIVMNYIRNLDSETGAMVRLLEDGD"}, "[2]": {"target": "T2, Cre recombinase monomer with E176M mutation", "T2 chain": "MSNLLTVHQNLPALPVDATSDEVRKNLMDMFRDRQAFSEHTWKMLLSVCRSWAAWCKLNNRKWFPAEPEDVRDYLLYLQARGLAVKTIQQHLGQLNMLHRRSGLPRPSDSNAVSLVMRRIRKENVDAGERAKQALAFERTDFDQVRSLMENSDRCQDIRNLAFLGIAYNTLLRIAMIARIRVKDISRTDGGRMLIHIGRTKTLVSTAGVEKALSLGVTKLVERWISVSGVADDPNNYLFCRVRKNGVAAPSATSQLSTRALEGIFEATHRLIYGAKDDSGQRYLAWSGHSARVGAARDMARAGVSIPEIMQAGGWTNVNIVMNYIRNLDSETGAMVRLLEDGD"}, "[3]": {"target": "T3, Cre recombinase monomer with E176V mutation", "T3 chain": "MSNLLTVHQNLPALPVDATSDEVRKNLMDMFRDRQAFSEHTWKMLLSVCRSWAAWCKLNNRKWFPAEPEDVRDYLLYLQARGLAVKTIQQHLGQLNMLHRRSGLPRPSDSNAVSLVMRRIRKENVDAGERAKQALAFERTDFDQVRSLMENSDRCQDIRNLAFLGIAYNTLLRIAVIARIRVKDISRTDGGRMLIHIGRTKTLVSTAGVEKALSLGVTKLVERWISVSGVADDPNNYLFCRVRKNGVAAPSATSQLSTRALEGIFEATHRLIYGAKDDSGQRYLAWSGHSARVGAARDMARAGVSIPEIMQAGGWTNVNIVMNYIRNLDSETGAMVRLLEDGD"}, "[4]": {"target": "T4, Cre recombinase monomer with E176W mutation", "T4 chain": "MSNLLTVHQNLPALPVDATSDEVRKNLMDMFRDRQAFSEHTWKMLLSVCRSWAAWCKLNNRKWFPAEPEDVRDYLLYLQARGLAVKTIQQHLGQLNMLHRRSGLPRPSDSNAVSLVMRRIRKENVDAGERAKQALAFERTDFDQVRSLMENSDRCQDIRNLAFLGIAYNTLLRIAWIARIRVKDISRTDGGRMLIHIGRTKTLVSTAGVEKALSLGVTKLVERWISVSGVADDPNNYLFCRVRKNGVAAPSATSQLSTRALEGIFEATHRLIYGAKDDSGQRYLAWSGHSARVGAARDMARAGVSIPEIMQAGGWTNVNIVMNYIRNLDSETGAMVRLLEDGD"}, "[5]": {"target": "T5, Cre recombinase monomer with E176Y mutation", "T5 chain": "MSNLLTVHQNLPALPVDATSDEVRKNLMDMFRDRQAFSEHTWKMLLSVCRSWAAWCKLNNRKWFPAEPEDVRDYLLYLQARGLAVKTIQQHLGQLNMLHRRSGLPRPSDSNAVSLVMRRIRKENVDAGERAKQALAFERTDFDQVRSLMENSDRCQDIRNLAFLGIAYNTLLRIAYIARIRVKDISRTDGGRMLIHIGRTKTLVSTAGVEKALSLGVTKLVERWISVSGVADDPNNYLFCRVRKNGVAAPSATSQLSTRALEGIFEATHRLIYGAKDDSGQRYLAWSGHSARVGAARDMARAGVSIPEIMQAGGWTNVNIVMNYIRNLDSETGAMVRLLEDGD"}, "[6]": {"target": "T6, Cre recombinase monomer with K201Q mutation", "T6 chain": "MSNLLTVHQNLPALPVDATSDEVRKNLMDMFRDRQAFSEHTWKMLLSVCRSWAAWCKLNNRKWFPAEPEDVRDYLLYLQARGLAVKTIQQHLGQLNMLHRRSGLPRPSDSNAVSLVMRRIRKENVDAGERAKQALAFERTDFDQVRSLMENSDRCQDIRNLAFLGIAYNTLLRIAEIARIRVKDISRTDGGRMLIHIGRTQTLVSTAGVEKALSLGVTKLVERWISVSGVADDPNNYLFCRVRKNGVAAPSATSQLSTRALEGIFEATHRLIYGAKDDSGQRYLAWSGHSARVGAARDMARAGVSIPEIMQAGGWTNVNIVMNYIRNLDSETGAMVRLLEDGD"}, "[7]": {"target": "T7, Cre recombinase monomer with Q311R mutation", "T7 chain": "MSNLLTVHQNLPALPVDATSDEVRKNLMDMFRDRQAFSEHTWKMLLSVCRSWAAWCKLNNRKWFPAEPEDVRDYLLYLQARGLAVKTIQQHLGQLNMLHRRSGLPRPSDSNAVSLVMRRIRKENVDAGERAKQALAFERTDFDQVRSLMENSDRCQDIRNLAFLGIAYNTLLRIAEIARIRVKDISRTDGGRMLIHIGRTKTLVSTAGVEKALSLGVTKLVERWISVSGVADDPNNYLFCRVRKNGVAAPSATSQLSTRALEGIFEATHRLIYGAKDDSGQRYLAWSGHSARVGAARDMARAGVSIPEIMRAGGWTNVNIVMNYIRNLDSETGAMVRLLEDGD"}, "[8]": {"target": "T8, Cre recombinase monomer with K201Y mutation", "T8 chain": "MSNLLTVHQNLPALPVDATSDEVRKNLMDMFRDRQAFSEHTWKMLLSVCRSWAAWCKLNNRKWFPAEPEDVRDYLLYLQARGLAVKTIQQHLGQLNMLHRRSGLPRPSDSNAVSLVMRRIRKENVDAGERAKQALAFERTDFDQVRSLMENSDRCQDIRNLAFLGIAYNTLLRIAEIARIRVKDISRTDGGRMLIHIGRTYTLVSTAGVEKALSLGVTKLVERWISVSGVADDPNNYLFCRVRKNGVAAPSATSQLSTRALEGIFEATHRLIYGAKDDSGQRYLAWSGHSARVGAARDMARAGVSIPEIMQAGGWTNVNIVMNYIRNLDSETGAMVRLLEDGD"}, "[9]": {"target": "T9, Cre recombinase monomer with Y324T mutation", "T9 chain": "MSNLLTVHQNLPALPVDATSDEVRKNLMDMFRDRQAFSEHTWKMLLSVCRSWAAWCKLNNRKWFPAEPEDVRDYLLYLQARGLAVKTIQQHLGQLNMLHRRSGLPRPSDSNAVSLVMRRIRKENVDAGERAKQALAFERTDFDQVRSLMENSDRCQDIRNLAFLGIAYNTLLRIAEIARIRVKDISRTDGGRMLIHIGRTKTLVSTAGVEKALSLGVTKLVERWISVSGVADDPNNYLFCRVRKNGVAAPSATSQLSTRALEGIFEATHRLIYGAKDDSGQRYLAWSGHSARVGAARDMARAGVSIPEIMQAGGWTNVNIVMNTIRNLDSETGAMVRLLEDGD"}}}
{"protein": "Cre recombinase monomer with R173F mutation (protein) MSNLLTVHQNLPALPVDATSDEVRKNLMDMFRDRQAFSEHTWKMLLSVCRSWAAWCKLNNRKWFPAEPEDVRDYLLYLQARGLAVKTIQQHLGQLNMLHRRSGLPRPSDSNAVSLVMRRIRKENVDAGERAKQALAFERTDFDQVRSLMENSDRCQDIRNLAFLGIAYNTLLFIAEIARIRVKDISRTDGGRMLIHIGRTKTLVSTAGVEKALSLGVTKLVERWISVSGVADDPNNYLFCRVRKNGVAAPSATSQLSTRALEGIFEATHRLIYGAKDDSGQRYLAWSGHSARVGAARDMARAGVSIPEIMQAGGWTNVNIVMNYIRNLDSETGAMVRLLEDGD", "values": [{"measurement": "Median dimer activity (recombination on loxP)", "setting": "[1]", "value": 25, "unit": "%"}, {"measurement": "Median dimer activity (recombination on loxP)", "setting": "[2]", "value": 38, "unit": "%"}, {"measurement": "Median dimer activity (recombination on loxP)", "setting": "[3]", "value": 82, "unit": "%"}, {"measurement": "Median dimer activity (recombination on loxP)", "setting": "[4]", "value": 30, "unit": "%"}, {"measurement": "Median dimer activity (recombination on loxP)", "setting": "[5]", "value": 40, "unit": "%"}, {"measurement": "Median dimer activity (recombination on loxP)", "setting": "[6]", "value": 39, "unit": "%"}, {"measurement": "Median dimer activity (recombination on loxP)", "setting": "[7]", "value": 84, "unit": "%"}]}
{"protein": "Cre recombinase monomer with R173G mutation (protein) MSNLLTVHQNLPALPVDATSDEVRKNLMDMFRDRQAFSEHTWKMLLSVCRSWAAWCKLNNRKWFPAEPEDVRDYLLYLQARGLAVKTIQQHLGQLNMLHRRSGLPRPSDSNAVSLVMRRIRKENVDAGERAKQALAFERTDFDQVRSLMENSDRCQDIRNLAFLGIAYNTLLGIAEIARIRVKDISRTDGGRMLIHIGRTKTLVSTAGVEKALSLGVTKLVERWISVSGVADDPNNYLFCRVRKNGVAAPSATSQLSTRALEGIFEATHRLIYGAKDDSGQRYLAWSGHSARVGAARDMARAGVSIPEIMQAGGWTNVNIVMNYIRNLDSETGAMVRLLEDGD", "values": [{"measurement": "Median dimer activity (recombination on loxP)", "setting": "[8]", "value": 95, "unit": "%"}, {"measurement": "Median dimer activity (recombination on loxP)", "setting": "[7]", "value": 95, "unit": "%"}, {"measurement": "Median dimer activity (recombination on loxP)", "setting": "[9]", "value": 32, "unit": "%"}]}
